B1: #330: fusion protein comprised of a CD19 variant and an anti-CLL-1 VHH (2H3); SEQ ID NO:305 (protein)
chain: MEFGLSWVFLVALFRGVQCQVQLQESGGGLVQAGGSLRLSCVASGSIRSINVMGWYRQAPGKQRELVAACASDGNTYYADSVKGRFTISRDNAEKTVYLQMNNLKPDDTAVYYCDANSRGNYYSGQGTQVTVSSTSGPGGQGAGGGGSGGGGSGGGGSGGGGSPEEPLVVKVEEGDTAALWCLKGTSDGPTQQLTWSRESPLKPFLKYSLGVPGLGVHVRPDAISVVIRNVSQQMGGFYLCQPGPPSEKAWQPGWTVNVEGSGELFRWNVSDLGGLGCGLKNRSSEGPSSPSGKLMSPKLYVWAKDRPEIWEGEPPCLPPRDSLNQSLSRDLTVAPGSTLWLSCGVPPDSVSRGPLSWTHVHPKGPKSLLSLELKDDRPARDMWVMGTSLMLPRATAQDAGKWYCHRGNLTMSFHLEITARPSRHHHHHH
B2: #440: fusion protein comprising an anti-CLEC12A VHH, an anti-CD33 scFv, and a CD19 ECD; SEQ ID NO:321 (protein)
chain: MEFGLSWVFLVALFRGVQCQVQLVQSGAEVKKPGESVKVSCKASGYTFTNYGMNWVKQAPGQGLEWMGWINTYTGEPTYADKFQGRVTMTTDTSTSTAYMEIRNLGGDDTAVYYCARWSWSDGYYVYFDYWGQGTSVTVSSGGGGSGGGGSGGGGSDIVMTQSPDSLTVSLGERTTINCKSSQSVLDSSTNKNSLAWYQQKPGQPPKLLLSWASTRESGIPDRFSGSGSGTDFTLTIDSPQPEDSATYYCQQSAHFPITFGQGTRLEIKGGGGSGGGGSGGGGSGGGGSQVQLQESGGGLVQAGGSLRLSCVASGSIRSINVMGWYRQAPGKQRELVAACASDGNTYYADSVKGRFTISRDNAEKTVYLQMNNLKPDDTAVYYCDANSRGNYYSGQGTQVTVSSTSGPGGQGAGGGGSGGGGSGGGGSGGGGSPEEPLVVKVEEGDTAALWCLKGTSDGPTQQLTWSRESPLKPFLKYSLGVPGLGVHVRPDAISVVIRNVSQQMGGFYLCQPGPPSEKAWQPGWTVNVEGSGELFRWNVSDLGGLGCGLKNRSSEGPSSPSGKLMSPKLYVWAKDRPEIWEGEPPCLPPRDSLNQSLSRDLTVAPGSTLWLSCGVPPDSVSRGPLSWTHVHPKGPKSLLSLELKDDRPARDMWVMGTSLMLPRATAQDAGKWYCHRGNLTMSFHLEITARPSRHHHHHH

What was measured:
U937 cells = assay: CAR-CD19 T cell cytotoxicity bridged by purified fusion protein, luciferase U937 cells; format: cell-based; settings: FIG. 21B
Experimental: Several fusion proteins were purified and evaluated for their ability to bridge killing of CLL-1 expressing cells by CAR-T cells that target CD19. Luciferase was introduced to U937 cells and […] by lentiviral transduction. On day 1 U937 cells were seeded at 1×10^4 per well of a round-bottom 96 well plate (Thermo Fisher) or 293T-CLL-1 cells were seeded in a flat bottom plate in cell culture media (RPMI 1640, 10% FBS). On day 2, the fusion proteins #357, #330 and #321 were added at 0.2 μg/ml (20 ng/well) with serial 3 fold dilutions where indicated, then left to incubate at 37° C. for 1 hour using the cell culture incubator. […]
On day 3, the plate was spun at 550 RCF for 5 minutes and rinsed with PBS then spun again to remove the PBS. […] The injector added 100 μl of Luciferase assay reagent per well, then the well was read immediately. The plate was then advanced to the next well for a repeat of the inject-then-read process. […]
The % cell death (aka cytotoxicity) was calculated as follows:
% killing=[1−luc reading (experimental wells)/luc reading (tumor cells without CAR T cells)]×100. […]
To test cytoxicity, luciferase labeled Molm14 or U937 cells were targeted for cytotoxic killing using a CAR19 T cell preparation and the purified proteins #330, #410 and #440 added in a dose titration. […] The plates were read in a luminometer with an injector (Glomax Multi Detection System, Promega). […]

CD33 = CD33 (Homo sapiens, UniProt P20138); assay: ELISA of fusion proteins, FMC63 coat, biotinylated CD33 detection; format: binding
Experimental: ELISAs for binding to CD19, CLEC12A and CD33 were run using purified fusion proteins #330, #410 and #440. A 96 well plate was coated with 1.0 μg/ml FMC63 (Novus) in 0.1 M carbonate, pH 9.5 overnight at 4° C. The plate was blocked with 0.3% non-fat milk in TBS for 1 hour at room temperature. After washing in TBST (0.1 M Tris, 0.5 M NaCl, 0.05% Tween20) 3 times, the fusion protein supernatant was titrated using 3-fold dilutions in 1% BSA in TBS and incubated 1 hour at room temperature. For detection by anti-His, after washing 3 times in TBST, HRP-anti-His (BioLegend) was added at 1:2000. The plate was incubated at room temperature in the dark for 1 hour. For detection of binding to CLEC12A, biotinylated CLEC12A was added at 0.5 μg/ml and incubated for 1 hour. This was followed by adding HRP-SA (Pierce) at 1:2000 and incubated at room temperature in the dark for 1 hour. For testing binding to CD33, biotinylated CD33 was added at 0.5 μg/ml and incubated for 1 hour. This was followed by adding HRP-SA (Pierce) at 1:2000 and incubated at room temperature in the dark for 1 hour. Then, 1-Step Ultra TMB-ELISA (Thermo Fisher) solution, was added and the plate read at […]. Curves were fit using a four-parameter logistic (4 PL) regression to calculate the EC50.

Molm14 cells = assay: CAR-CD19 T cell cytotoxicity bridged by purified fusion protein, luciferase Molm14 cells; format: cell-based; settings: FIG. 21A
Experimental: To test cytoxicity, luciferase labeled Molm14 or U937 cells were targeted for cytotoxic killing using a CAR19 T cell preparation and the purified proteins #330, #410 and #440 added in a dose titration. 1×10^4 target cells were added to each well (96 clear round bottom plate) in RPMI medium. The protein titration was started at 180 ng/ml with 3-fold serial titration into corresponding wells (25 μl per well). CAR-CD19 T cells were added at various E:T ratios to the target cells. After 48 hours the plate was centrifuged (450 RCF for 5 minutes) and the cells were washed 1× with PBS then centrifuged a second time. 20 μl lysis buffer was added into each well. The cell lysate was transferred to a 96 opaque white plate. The plates were read in a luminometer with an injector (Glomax Multi Detection System, Promega). The percent killing was calculated based upon the average loss of luminescence of the experimental vs the control (target cell only or target cell plus fusion protein only).

[1] = ELISA, FMC63 coat, biotinylated CD33

CD33, sequence (P20138 18-364): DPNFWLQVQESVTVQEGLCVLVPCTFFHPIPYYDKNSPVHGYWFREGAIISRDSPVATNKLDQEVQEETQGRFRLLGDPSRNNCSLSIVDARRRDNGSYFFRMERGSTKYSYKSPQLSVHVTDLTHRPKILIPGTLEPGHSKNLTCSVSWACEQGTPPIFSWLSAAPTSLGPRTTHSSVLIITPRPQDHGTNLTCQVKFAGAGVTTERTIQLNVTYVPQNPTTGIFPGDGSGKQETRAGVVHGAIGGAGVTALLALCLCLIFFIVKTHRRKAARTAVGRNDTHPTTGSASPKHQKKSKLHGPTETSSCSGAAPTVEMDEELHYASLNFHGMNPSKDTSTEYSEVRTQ

Row | Molecule | cytotoxicity on U937 cells (U937 cells) | CD33 binding EC50 pM (CD33; [1]) | CD33 binding EC50 ng/ml (CD33; [1]) | cytotoxicity on Molm14 cells (Molm14 cells) | CD33 binding EC50 (CD33; [1]) [ng/mL] | ELISA binding to CD33 (CD33; Table 10)
1 | B1 | highest cytotoxicity | ∞ | ∞ | less potent |  | 
2 | B2 | essentially the same activity |  |  | about equipotent | 2.1 | binds equally well to both components

— patent US20220387487A1, “COMPOSITIONS AND METHODS FOR TREATMENT OF CANCER” (Aleta Biotherapeutics Inc., priority 2019, published 2022)
